These binders were tested against LXRb:RXRa (Homo sapiens, UniProt P55055;P19793 full;full) (assay: no ligand; PBM; 270 nM : 90 nM RXRa; PBS pH 7.4, 2% milk, 0.02% Triton X-100, 1 mM DTT, BSA, 0.4 mg/ml salmon testes DNA). Settings: tags: His kept;His cleaved; copies: 1;1; label: surface-attached array probe.
Method in brief: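 Antibodies against each partner of ligand-free nuclear receptor dimers (one per run) detected binding on custom Agilent 4×180K protein-binding microarrays after 1 h incubation. The double-stranded probes had 34-nt variable regions carrying direct-repeat seeds, single-nucleotide variants, half-site ablations and random human genomic background sequences. Binding z-scores, from regression-normalized fluorescence, use the random background probes as reference.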

LXRb:RXRa, sequence (P55055 whole entry, chain 1 of 2): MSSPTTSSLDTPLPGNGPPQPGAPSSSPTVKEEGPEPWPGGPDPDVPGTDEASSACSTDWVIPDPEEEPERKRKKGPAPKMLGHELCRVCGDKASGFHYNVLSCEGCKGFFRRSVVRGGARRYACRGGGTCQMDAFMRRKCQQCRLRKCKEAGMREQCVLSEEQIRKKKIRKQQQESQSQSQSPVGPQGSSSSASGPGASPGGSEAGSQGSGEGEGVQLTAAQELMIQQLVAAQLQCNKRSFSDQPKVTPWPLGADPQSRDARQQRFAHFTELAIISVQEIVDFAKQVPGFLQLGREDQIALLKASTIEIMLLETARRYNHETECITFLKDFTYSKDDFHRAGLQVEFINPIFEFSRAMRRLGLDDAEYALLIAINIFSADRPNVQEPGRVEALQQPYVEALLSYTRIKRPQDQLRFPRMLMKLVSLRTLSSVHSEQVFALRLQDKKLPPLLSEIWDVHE
LXRb:RXRa, sequence (P19793 whole entry, chain 2 of 2): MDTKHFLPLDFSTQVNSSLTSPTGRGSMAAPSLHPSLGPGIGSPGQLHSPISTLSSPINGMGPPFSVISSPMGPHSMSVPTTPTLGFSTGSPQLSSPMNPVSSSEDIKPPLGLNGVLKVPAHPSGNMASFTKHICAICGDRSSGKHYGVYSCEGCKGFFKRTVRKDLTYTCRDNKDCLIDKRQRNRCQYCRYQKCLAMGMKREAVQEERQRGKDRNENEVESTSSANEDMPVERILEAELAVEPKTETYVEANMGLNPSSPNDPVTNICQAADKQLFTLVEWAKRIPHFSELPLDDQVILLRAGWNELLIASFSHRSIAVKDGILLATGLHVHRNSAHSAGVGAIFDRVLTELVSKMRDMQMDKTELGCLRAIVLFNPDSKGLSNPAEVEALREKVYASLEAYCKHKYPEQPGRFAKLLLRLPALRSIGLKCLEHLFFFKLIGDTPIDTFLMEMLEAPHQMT

Row | Binder | binding signal
1 | NRC3_wobSeed136_DR5_A9C_o1 (dsDNA) DNA 1: GCTAGCCTCGGTCATTCAGGGGCCAGTATAGAAAGCGCGATTGACAGCGTAGAATGAAGG DNA 2: CCTTCATTCTACGCTGTCAATCGCGCTTTCTATACTGGCCCCTGAATGACCGAGGCTAGC | 0.42 PBM z-score against 500 random probes
2 | NRC3_wobSeed50_DR2_G18A_o1 (dsDNA) DNA 1: GCCCTAGTTGGTCAGGAAGTCACACACCGGATATGAGCGATTGACAGCGTAGAATGAAGG DNA 2: CCTTCATTCTACGCTGTCAATCGCTCATATCCGGTGTGTGACTTCCTGACCAACTAGGGC | 0.38 PBM z-score against 500 random probes
3 | NRC3_wobSeed4_DR0_T8A_o1 (dsDNA) DNA 1: GCCCTACAGGGCCAAGGTCATTGATCAGTCAAAGCAGCGATTGACAGCGTAGAATGAAGG DNA 2: CCTTCATTCTACGCTGTCAATCGCTGCTTTGACTGATCAATGACCTTGGCCCTGTAGGGC | 3.02 PBM z-score against 500 random probes
4 | NRC3_wobSeed118_DR4_G15A_o1 (dsDNA) DNA 1: GCTTACCAAGGTGAACTGAGGTCGTTGATCCAACTCGCGATTGACAGCGTAGAATGAAGG DNA 2: CCTTCATTCTACGCTGTCAATCGCGAGTTGGATCAACGACCTCAGTTCACCTTGGTAAGC | 3.08 PBM z-score against 500 random probes
5 | NRC3_wobSeed82_DR3_T25A_o1 (dsDNA) DNA 1: GCATCGAAAGGTCGACGAGGTGAGAATACACCGTTTGCGATTGACAGCGTAGAATGAAGG DNA 2: CCTTCATTCTACGCTGTCAATCGCAAACGGTGTATTCTCACCTCGTCGACCTTTCGATGC | 3.13 PBM z-score against 500 random probes
6 | NRC3_wobSeed58_DR2_T26C_o1 (dsDNA) DNA 1: GCATCGAAAGGTCGTGAGGTGAGTACACAGAAAGGCGCGATTGACAGCGTAGAATGAAGG DNA 2: CCTTCATTCTACGCTGTCAATCGCGCCTTTCTGTGTACTCACCTCACGACCTTTCGATGC | 3.15 PBM z-score against 500 random probes
7 | NRC3_wobSeed58_DR2_G18A_o1 (dsDNA) DNA 1: GCATCGAAAGGTCGTGAAGTGAGTATACAGAAAGGCGCGATTGACAGCGTAGAATGAAGG DNA 2: CCTTCATTCTACGCTGTCAATCGCGCCTTTCTGTATACTCACTTCACGACCTTTCGATGC | 3.09 PBM z-score against 500 random probes
8 | NRC3_wobSeed42_DR1_G11A_o1 (dsDNA) DNA 1: GCTATACAGGATCAAAGGCCAGAGTACGAATGTCGAGCGATTGACAGCGTAGAATGAAGG DNA 2: CCTTCATTCTACGCTGTCAATCGCTCGACATTCGTACTCTGGCCTTTGATCCTGTATAGC | 0.47 PBM z-score against 500 random probes
9 | NRC3_wobSeed21_DR0_C21A_o1 (dsDNA) DNA 1: GCCGTCAAAGTTCAAGGTAAAGTAACAGAAAGCAGCGCGATTGACAGCGTAGAATGAAGG DNA 2: CCTTCATTCTACGCTGTCAATCGCGCTGCTTTCTGTTACTTTACCTTGAACTTTGACGGC | 3.04 PBM z-score against 500 random probes
10 | NRC3_wobSeed21_DR0_C13A_o1 (dsDNA) DNA 1: GCCGTCAAAGTTAAAGGTAACGTAACAGAAAGCAGCGCGATTGACAGCGTAGAATGAAGG DNA 2: CCTTCATTCTACGCTGTCAATCGCGCTGCTTTCTGTTACGTTACCTTTAACTTTGACGGC | 0.26 PBM z-score against 500 random probes
11 | NRC3_wobSeed100_DR4_C23G_o1 (dsDNA) DNA 1: GCCCTACTGGGCCACGAAAGGTGATTGATTCAGTGAGCGATTGACAGCGTAGAATGAAGG DNA 2: CCTTCATTCTACGCTGTCAATCGCTCACTGAATCAATCACCTTTCGTGGCCCAGTAGGGC | -0.2 PBM z-score against 500 random probes
12 | NRC3_wobSeed65_DR2_T15C_o1 (dsDNA) DNA 1: GCATATGTAGGTTACCGGGTCATTCAGTTTGCGCATGCGATTGACAGCGTAGAATGAAGG DNA 2: CCTTCATTCTACGCTGTCAATCGCATGCGCAAACTGAATGACCCGGTAACCTACATATGC | 3.17 PBM z-score against 500 random probes
13 | NRC3_wobSeed2_DR0_A20C_o1 (dsDNA) DNA 1: GCCCTAGTTGGTCAAGGTCCCACACGCTATAGGTACGCGATTGACAGCGTAGAATGAAGG DNA 2: CCTTCATTCTACGCTGTCAATCGCGTACCTATAGCGTGTGGGACCTTGACCAACTAGGGC | 0.48 PBM z-score against 500 random probes
14 | NRC3_wobSeed74_DR3_T8C_o1 (dsDNA) DNA 1: GCTCTAGCTGGTCACGGAGGTCACACACGACGGGTAGCGATTGACAGCGTAGAATGAAGG DNA 2: CCTTCATTCTACGCTGTCAATCGCTACCCGTCGTGTGTGACCTCCGTGACCAGCTAGAGC | 3.16 PBM z-score against 500 random probes
15 | NRC3_wobSeed113_DR4_G20A_o1 (dsDNA) DNA 1: GCATATGTAGGTTAGCTGGAGTCATTCAGACTAGGCGCGATTGACAGCGTAGAATGAAGG DNA 2: CCTTCATTCTACGCTGTCAATCGCGCCTAGTCTGAATGACTCCAGCTAACCTACATATGC | 0.16 PBM z-score against 500 random probes
16 | NRC3_wobSeed116_DR4_C15G_o1 (dsDNA) DNA 1: GCAGAATGAGGTTAGCAAAGATCAGGGAAACGCTTGGCGATTGACAGCGTAGAATGAAGG DNA 2: CCTTCATTCTACGCTGTCAATCGCCAAGCGTTTCCCTGATCTTTGCTAACCTCATTCTGC | 0.41 PBM z-score against 500 random probes
17 | NRC3_wobSeed53_DR2_C13A_o1 (dsDNA) DNA 1: GCCCTTACGGGTAACGAGGTTATAGCACGACGAGCGGCGATTGACAGCGTAGAATGAAGG DNA 2: CCTTCATTCTACGCTGTCAATCGCCGCTCGTCGTGCTATAACCTCGTTACCCGTAAGGGC | 0.41 PBM z-score against 500 random probes
18 | NRC3_wobSeed70_DR2_o1 (dsDNA) DNA 1: GCGTACCAAGGTGAATAGGTCGTTGATGAGTAGGCGGCGATTGACAGCGTAGAATGAAGG DNA 2: CCTTCATTCTACGCTGTCAATCGCCGCCTACTCATCAACGACCTATTCACCTTGGTACGC | 0.5 PBM z-score against 500 random probes
19 | NRC3_wobSeed114_DR4_C13G_o1 (dsDNA) DNA 1: GCAATACAGGGTGATCGTAGGCCAGAGTACGCACAGGCGATTGACAGCGTAGAATGAAGG DNA 2: CCTTCATTCTACGCTGTCAATCGCCTGTGCGTACTCTGGCCTACGATCACCCTGTATTGC | 0.1 PBM z-score against 500 random probes
20 | NRC3_wobSeed133_DR5_C13A_o1 (dsDNA) DNA 1: GCCGTCCAAGGTAAATGCTAGGTCAGTGAAAGCATTGCGATTGACAGCGTAGAATGAAGG DNA 2: CCTTCATTCTACGCTGTCAATCGCAATGCTTTCACTGACCTAGCATTTACCTTGGACGGC | 0.46 PBM z-score against 500 random probes
21 | NRC3_wobSeed133_DR5_T12G_o1 (dsDNA) DNA 1: GCCGTCCAAGGGCAATGCTAGGTCAGTGAAAGCATTGCGATTGACAGCGTAGAATGAAGG DNA 2: CCTTCATTCTACGCTGTCAATCGCAATGCTTTCACTGACCTAGCATTGCCCTTGGACGGC | 0.44 PBM z-score against 500 random probes
22 | NRC3_wobSeed5_DR0_G23C_o1 (dsDNA) DNA 1: GCCCTTACGGGTCAAGGTTATACCACGGGTGGTACGGCGATTGACAGCGTAGAATGAAGG DNA 2: CCTTCATTCTACGCTGTCAATCGCCGTACCACCCGTGGTATAACCTTGACCCGTAAGGGC | 3.06 PBM z-score against 500 random probes
23 | NRC3_wobSeed27_DR1_C20G_o1 (dsDNA) DNA 1: GCACTCGGAGGACAAAGGTGAGAGCTACGCCAGTGAGCGATTGACAGCGTAGAATGAAGG DNA 2: CCTTCATTCTACGCTGTCAATCGCTCACTGGCGTAGCTCTCACCTTTGTCCTCCGAGTGC | 0.32 PBM z-score against 500 random probes
24 | NRC3_wobSeed88_DR3_C21T_o1 (dsDNA) DNA 1: GCTAGCCTAGGTCATGCGGGTCAGTATAGTGTCGGCGCGATTGACAGCGTAGAATGAAGG DNA 2: CCTTCATTCTACGCTGTCAATCGCGCCGACACTATACTGACCCGCATGACCTAGGCTAGC | 3 PBM z-score against 500 random probes
